Our source for the Km, Vmax and kcat values is patent US9969998B2, “Compositions of adenosine deaminase-2 (ADA2), variants thereof and methods of using same” (Halozyme, Inc., priority 2014, dated 2018).

Numbering of substitutions follows the chain as printed. Names and notes keep the numbering of the source.

B1: R222Q/S265N/K374E/R23E: ADA2 combination variant SEQ ID NO:271 (protein)
chain: IDETRAHLLLKEKMMRLGGELVLNTKEELANERLMTLKIAEMKEAMRTLIFPPSMHFFQAKHLIERSQVFNILRMMPKGAALHLHDIGIVTMDWLVRNVTYRPHCHICFTPRGIMQFRFAHPTPRPSEKCSKWILLEDYRKRVQNVTEFDDSLLRNFTLVTQHPEVIYTNQNVVWSKFETIFFTISGLIHYAPVFRDYVFRSMQEFYEDNVLYMEIRAQLLPVYELSGEHHDEEWSVKTYQEVAQKFVETHPEFIGIKIIYNDHRSKDVAVIAESIRMAMGLRIKFPTVVAGFDLVGHEDTGHSLHDYKEALMIPAKDGVKLPYFFHAGETDWQGTSIDRNILDALMLNTTRIGHGFALSKHPAVRTYSWEKDIPIEVCPISNQVLKLVSDLRNHPVATLMATGHPMVISSDDPAMFGAKGLSYDFYEVFMGIGGMKADLRTLKQLAMNSIKYSTLLESEKNTFMEIWKKRWDKFIADVATK
modifications: human ADA2 R219Q/S262N/K371E/R20E, mature numbering
B2: R222Q/S265N/K374D/R23E: ADA2 combination variant SEQ ID NO:272 (protein)
chain: B1 chain with E371D
modifications: human ADA2 R219Q/S262N/K371D/R20E, mature numbering
B3: K374D/V102-Q147del→(GGGGS)1 (protein)
chain: IDETRAHLLLKEKMMRLGGRLVLNTKEELANERLMTLKIAEMKEAMRTLIFPPSMHFFQAKHLIERSQVFNILRMMPKGAALHLHDIGIVTMDWLVRNGGGGSNVTEFDDSLLRNFTLVTQHPEVIYTNQNVVWSKFETIFFTISGLIHYAPVFRDYVFRSMQEFYEDNVLYMEIRARLLPVYELSGEHHDEEWSVKTYQEVAQKFVETHPEFIGIKIIYSDHRSKDVAVIAESIRMAMGLRIKFPTVVAGFDLVGHEDTGHSLHDYKEALMIPAKDGVKLPYFFHAGETDWQGTSIDRNILDALMLNTTRIGHGFALSKHPAVRTYSWDKDIPIEVCPISNQVLKLVSDLRNHPVATLMATGHPMVISSDDPAMFGAKGLSYDFYEVFMGIGGMKADLRTLKQLAMNSIKYSTLLESEKNTFMEIWKKRWDKFIADVATK
modifications: V102-Q147 replaced by (GGGGS)1; human ADA2 K371D/V99-Q144del->(GGGGS)1, mature numbering
B4: K374D/C108-T150del→(GGGGS)3 (protein)
chain: IDETRAHLLLKEKMMRLGGRLVLNTKEELANERLMTLKIAEMKEAMRTLIFPPSMHFFQAKHLIERSQVFNILRMMPKGAALHLHDIGIVTMDWLVRNVTYRPHGGGGSGGGGSGGGGSEFDDSLLRNFTLVTQHPEVIYTNQNVVWSKFETIFFTISGLIHYAPVFRDYVFRSMQEFYEDNVLYMEIRARLLPVYELSGEHHDEEWSVKTYQEVAQKFVETHPEFIGIKIIYSDHRSKDVAVIAESIRMAMGLRIKFPTVVAGFDLVGHEDTGHSLHDYKEALMIPAKDGVKLPYFFHAGETDWQGTSIDRNILDALMLNTTRIGHGFALSKHPAVRTYSWDKDIPIEVCPISNQVLKLVSDLRNHPVATLMATGHPMVISSDDPAMFGAKGLSYDFYEVFMGIGGMKADLRTLKQLAMNSIKYSTLLESEKNTFMEIWKKRWDKFIADVATK
modifications: C108-T150 replaced by (GGGGS)3; human ADA2 K371D/C105-T147del->(GGGGS)3, mature numbering
B5: K374D/V102-Q147del→(GGGGS)3 (protein)
chain: IDETRAHLLLKEKMMRLGGRLVLNTKEELANERLMTLKIAEMKEAMRTLIFPPSMHFFQAKHLIERSQVFNILRMMPKGAALHLHDIGIVTMDWLVRNGGGGSGGGGSGGGGSNVTEFDDSLLRNFTLVTQHPEVIYTNQNVVWSKFETIFFTISGLIHYAPVFRDYVFRSMQEFYEDNVLYMEIRARLLPVYELSGEHHDEEWSVKTYQEVAQKFVETHPEFIGIKIIYSDHRSKDVAVIAESIRMAMGLRIKFPTVVAGFDLVGHEDTGHSLHDYKEALMIPAKDGVKLPYFFHAGETDWQGTSIDRNILDALMLNTTRIGHGFALSKHPAVRTYSWDKDIPIEVCPISNQVLKLVSDLRNHPVATLMATGHPMVISSDDPAMFGAKGLSYDFYEVFMGIGGMKADLRTLKQLAMNSIKYSTLLESEKNTFMEIWKKRWDKFIADVATK
modifications: (GGGGS)3 linker replaces deleted region; human ADA2 K371D/V99-Q144del->(GGGGS)3, mature numbering
B6: K374D/C108-T150del→(GGGGS)2 (protein)
chain: IDETRAHLLLKEKMMRLGGRLVLNTKEELANERLMTLKIAEMKEAMRTLIFPPSMHFFQAKHLIERSQVFNILRMMPKGAALHLHDIGIVTMDWLVRNVTYRPHGGGGSGGGGSEFDDSLLRNFTLVTQHPEVIYTNQNVVWSKFETIFFTISGLIHYAPVFRDYVFRSMQEFYEDNVLYMEIRARLLPVYELSGEHHDEEWSVKTYQEVAQKFVETHPEFIGIKIIYSDHRSKDVAVIAESIRMAMGLRIKFPTVVAGFDLVGHEDTGHSLHDYKEALMIPAKDGVKLPYFFHAGETDWQGTSIDRNILDALMLNTTRIGHGFALSKHPAVRTYSWDKDIPIEVCPISNQVLKLVSDLRNHPVATLMATGHPMVISSDDPAMFGAKGLSYDFYEVFMGIGGMKADLRTLKQLAMNSIKYSTLLESEKNTFMEIWKKRWDKFIADVATK
modifications: C108-T150 replaced by (GGGGS)2; human ADA2 K371D/C105-T147del->(GGGGS)2, mature numbering
B7: K374D/C108-T150del→(GGGGS)1 (protein)
chain: IDETRAHLLLKEKMMRLGGRLVLNTKEELANERLMTLKIAEMKEAMRTLIFPPSMHFFQAKHLIERSQVFNILRMMPKGAALHLHDIGIVTMDWLVRNVTYRPHGGGGSEFDDSLLRNFTLVTQHPEVIYTNQNVVWSKFETIFFTISGLIHYAPVFRDYVFRSMQEFYEDNVLYMEIRARLLPVYELSGEHHDEEWSVKTYQEVAQKFVETHPEFIGIKIIYSDHRSKDVAVIAESIRMAMGLRIKFPTVVAGFDLVGHEDTGHSLHDYKEALMIPAKDGVKLPYFFHAGETDWQGTSIDRNILDALMLNTTRIGHGFALSKHPAVRTYSWDKDIPIEVCPISNQVLKLVSDLRNHPVATLMATGHPMVISSDDPAMFGAKGLSYDFYEVFMGIGGMKADLRTLKQLAMNSIKYSTLLESEKNTFMEIWKKRWDKFIADVATK
modifications: C108-T150 replaced by GGGGS linker; human ADA2 K371D/C105-T147del->(GGGGS)1, mature numbering

In general, Km refers to the concentration of substrate that gives half-maximal velocity. In general, Vmax refers to the rate approached at saturating substrate. The term kcat denotes the number of substrate molecules converted per active site and unit of time at saturation.

One series can be described thus: Kinetic assessment of adenosine deaminase activity (ammonia assay, Michaelis-Menten). Conditions: pH 6.5; [E] = 8.5 nM. The format is biochemical. Put shortly: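 Coupled ammonia assay: rHuADA2 WT or variants (1 μg/mL, 17 nM in 2× mix) with adenosine 20 μM–20 mM, α-ketoglutarate, NADPH and GDH, at pH 7.6 or pH 6.5 (PIPES), room temperature. Michaelis-Menten fit gave Km, Vmax, kcat, kcat/Km.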
For B1, the Km came to 770 µM and the maximal velocity (Vmax) was 54.82 µM/min.

As for B2, the Km was 810 µM and the maximal velocity (Vmax) amounted to 45.78 µM/min.

Staying with this series, now noted: pH 6.5; [E] = 8.5 nM; kcat=Vmax/0.0085/60.
For B1, the catalytic constant (kcat) stood at 107.49 s⁻¹.

Turning to B2, the catalytic constant (kcat) amounted to 89.76 s⁻¹.

The series is the same for the next values; noted with them: pH 7.6; [E] = 8.5 nM.
Regarding B3, the Km turned out to be 890 µM, the Vmax worked out at 43.46 µM/min and the turnover number (kcat) is 85.22 s⁻¹.

On to B4, for which the Michaelis-Menten constant (Km) is 770 µM, the maximum rate (Vmax) was 38.12 µM/min and the kcat was 74.75 s⁻¹.

With B1, the Km stood at 1240 µM and the maximal velocity (Vmax) turned out to be 90.91 µM/min.

Consider B2, for which the Michaelis-Menten constant (Km) is 1230 µM and the maximal velocity (Vmax) worked out at 72.58 µM/min.

For the molecule B5, the Michaelis constant (Km) stood at 820 µM, the maximum rate (Vmax) was 43.01 µM/min and the kcat was 84.33 s⁻¹.

With B6, the Michaelis constant (Km) stood at 850 µM, the maximum rate (Vmax) was determined as 36.92 µM/min and the turnover number (kcat) is 72.39 s⁻¹.

As for B7, the Km is 910 µM, the Vmax stood at 43.1 µM/min and the kcat came to 84.51 s⁻¹.

Staying with this series, now noted: pH 7.6; [E] = 8.5 nM; kcat=Vmax/0.0085/60.
B1: the kcat turned out to be 178.25 s⁻¹.

Consider B2, for which the turnover number (kcat) amounted to 142.31 s⁻¹.
